Reference: US20240002475A1

Columns and labels:
[1] = molecular target: green fluorescent protein (GFP), recombinant (Aequorea victoria) [GFP: P42212]; assay: SPR, GFP immobilised
[2] = molecular target: GFP-tagged Nup84 (budding yeast) (budding yeast) (UniProt P52891); assay: time course of yeast Nup84-GFP isolation on magnetic beads
[3] = molecular target: green fluorescent protein (GFP), recombinant (Aequorea victoria) [GFP: P42212]; assay: SPR, GFP immobilised; reference LaG-16 or LaG-2 alone

- Kd [1]: 0.036 nM
- percent of maximum yield after 5 minutes [2]: 80%
- percent of maximum yield after 10 minutes [2]: 90%
- fold lower Kd than either LaG alone [3]: 20 fold
Substance: LaG16-LaG2 fusion with a flexible glycine-rich linker
